Reference: patent US10745461B2, “Pulsed introduction of low-dose RANKL as a therapy for diet-induced atherosclerosis” (Saint Louis University, priority 2015, dated 2020)
“Also recorded” adds a separate entry of the source.

Experiments:
[1] = tested on: FoxP3+ CD8 T-cells (TcREG); assay: In vivo TcREG induction: GFP negative CD8 T-cells adoptively transferred into OT-I Rag-/- mice
Procedure: FIGS. 1A, 1B and 1C indicate that TcREG are induced by activated osteoclasis. […] In the absence of RANK L treatment, very low level of conversion was observed after three days. […] ZA was administered intravenously one week prior to adoptive transfer of CD8 T-cells.
It was first determined the dose of RANKL that produced the maximal number FoxP3^+ CD8 T-cells in the bone marrow. RANKL was administered into FoxP3-GFP reporter mice at various doses for two consecutive days. Fifty hours after first dose, the mice were sacrificed and the numbers of CD8 T-cells that were GFP positive cells in the bone marrow were measured. […] The increased levels of FoxP3 in the bone marrow could either be due to recruitment of TcREG to the bone marrow or induction of FoxP3 expression in cells that were FoxP3 negative. To test for induction FACS sorted the GFP negative population of CD8 (Thy 1.2+ that were CD44 negative or naïve) from the spleens and bone marrow to high purity (FIG. 1C first panel) and adoptively transferred them into congenically marked (Thy 1.1) OT-I Rag^−/− mice. […] In the absence of RANKL administration low levels […] CD8 T-cell were detected (FIGS. 1B and C second panel), but RANKL administration (0.125 mg/kg) yielded ˜1% […] Thy 1.2 T-cells (FIGS. 1B and 1C third panel). […]

[2] = tested on: ovariectomized mice; assay: Pulsed versus continuous (ALZET pump) RANKL in OVX mice; assay type: in vivo
Procedure: FIGS. 10A through 10E show the effect of delivering RANKL in pulses as opposed to a continuous exposure leads to its antiresorptive effect. 12 week old mice were treated either as sham-operated or OVX using pumps or pulsed. Two weeks post-surgery ALZET® pumps were implanted in the intraperitoneal cavity that contained either PBS or RANKL as indicated in the plots above. All groups were pulsed with equivalent dose of RANKL (0.125 mg/kg, pulsed twice 24 hrs. apart) or PBS as indicated in the plots. […] In FIG. 10B, Quantification across groups (6 mice/group).

[3] = tested on: TNFα and IL17A; assay: Once per month low-dose RANKL or Zoledronate: cytokines from peripheral blood cells by multiplexed ELISA; assay type: in vivo, mice; conditions: 120 days post-OVX; RANKL 0.125 mg/kg once per month; ZA once 3 weeks post-OVX
Procedure: To assess the kinetics of a single treatment, C57BL/6J ovariectomized mice were treated with low-dose RANKL (administered twice 24 hrs apart, 2 weeks post-OVX) and then followed by serum CTX assay. […] In FIG. 11B, to assess whether multiple treatments are effective, sham-operated (Sx) or OVX 12-week old C57BL/6J mice were treated with low-dose RANKL (0.125 mg/kg) once per month or once with the bisphosphonate Zoledronate (ZA; 3 weeks post-OVX). 120 days post-OVX peripheral blood obtained by mandible bleeds was treated to remove RBCs (BD Pharmalyse) then 1 to 3×10^6 cells were plated per well in triplicate (6 mice/group). Media was collected after 36 hours of culturing and cytokine levels quantitated by multiplexed ELISA (Millipore).

[4] = tested on: IL-17A and TNFα; assay: WD-fed ovariectomized WT mice: TcREG and IL-17A/TNFα production by peripheral blood T-cells; assay type: in vivo; conditions: for peripheral blood T-cells that express TNFα and/or IL-17A (flow cytometry) / IL-17A and TNFα produced by freshly isolated peripheral blood cells (ELISA): WD-fed OVX WT mice
From the text: It has been previously shown that low-dose RANKL (IdRANKL) induces TcREG in bone marrow. We postulated that induction of TcREG might be atheroprotective as it protects against osteoporosis in ovariectomized mice. To test that proposal, we first tested the ability of IdRANKL to modulate the systemic availability of proinflammatory cytokines. Thus, a new group of WT mice were fed WD, and subjected to sham or OVX surgeries, then dosed with saline or IdRANKL (two i.p. injections 3 and 7 weeks after OVX). […] We then, measured the ability of freshly isolated T-cells from peripheral blood to produce IL-17A and TNFα. […] Zoledronate is a bisphosphonate that is used clinically to prevent bone resorption (by suppressing osteoclasts). […] Without being limited to any particular theory of operation, we hypothesize that these cells contribute to postmenopausal comorbidities such as atherosclerosis and osteoporosis, and that immunosuppressing therapies such as pulsed IdRANKL will have cardio- and osteo-protective effects.

B1: receptor activator of NF-κB ligand (protein, UniProt O35235 139-316, looked up)
Tumor necrosis factor ligand …: FSGAPAMMEGSWLDVAQRGKPEAQPFAHLTINAASIPSGSHKVTLSSWYHDRGWAKISNMTLSNGKLRVNQDGFYYLYANICFRHHETSGSVPTDYLQLMVYVVKTSIKIPSSHNLMKGGSTKNWSGNSEFHFYSINVGGFFKLRAGEEISIQVSNPSLLDPDQDATYFGAFKVQDID
modifications: GST tag
[1]; 0.125 mg/kg, 50 hrs after RANKL treatment, 3 days after T-cell transfer
  TcREG induction by RANKL: robustly induced TcREG
[1]; RANKL 0.125 mg/kg, OT-I Rag-/- recipients
  GFP+ Thy 1.2 T-cells after RANKL administration: ~1%
[2]; continuous delivery via osmotic pumps
  bone resorption: led to increased bone resorption
[2]; continuous exposure by pump, identical dose
  TcREG induction: did not induce TcREG; also recorded: No TcREG induction is observed
[2]; delivered by pump
  Bone volume (BV/TV): decreased
[2]; pulsed
  Bone volume (BV/TV): restored to levels observed in sham-operated mice
  TEFF cells: decrease in TEFF cells was only observed in mice pulsed with RANKL
  bone resorption: decreased levels of bone resorption were observed
[2]; pulsed, 0.125 mg/kg twice 24 hrs apart
  TcREG induction: induced TcREG
[3]
  TNFα and IL17A produced by peripheral blood cells (immunosuppression): immunosuppressive
[4]
  peripheral blood T-cells that express TNFα and/or IL-17A (flow cytometry): abrogates OVX-induced increase in peripheral blood T-cells that express TNFα and/or IL-17A
[4]; listed as IdRANKL
  IL-17A and TNFα produced by freshly isolated peripheral blood cells (ELISA): abrogated the ability of circulating T-cells to secrete IL-17A, TNFα, or both
  peripheral blood T-cells that express TNFα and/or IL-17A (flow cytometry): prevented such increase
[4]; listed as low-dose RANKL
  IL-17A and TNFα produced by freshly isolated peripheral blood cells (ELISA): abrogates OVX-induced increase in TNFα and IL-17A expression
[4]; WD-fed WT mice, two i.p. injections 3 and 7 weeks after OVX
  numbers of CD8+ FoxP3+ cells in the bone marrow: increased
